The source of these data is US9051358B2, “Nonnatural collagen-like protein and use thereof” (ZHEJIANG UNIVERSITY, priority 2009, dated 2015).

Data set [1] concerns G-CSF-dependent cell line NFS60. The data set can be described thus: In vitro bioactivity in G-CSF-dependent cell line NFS60 by MTT assay. The class given is cell-based. The conditions noted are these: for Bioactivity (IU/mg): Table 4; for Relative activity (in molar basis)(%): relative to G-CSF. The procedure: In vitro bioactivity of the rGLK1164/G-CSF fusion protein was measured in G-CSF-dependent cell line NFS60 by MTT assay (Chinese Pharmacopoeia, 2005 edition, three sections).
A general note: Formazan colour is commonly taken as a measure of viable cells.

A short description of data set [2]: In vitro stability, shock at 40° C., SEC-HPLC analysis. The class given is physicochemical. The conditions noted are these: for Purity (%) (SEC-HPLC analysis): 1 mg/ml in 20 mM PB pH6.0, 40° C.; for protein content after incubation (%): 40° C.; for in vitro stability (aggregates, total protein content): shock 48 hours at 40° C. How it is done:
Reference rhG-CSF and rGLK1164/G-CSF were dissolved in 20 mM PB, pH6.0 to the protein concentration of 1 mg/ml. samples were sterile filtered and distributed to penicillin bottles. […]
For orientation: In gel filtration, larger molecules generally elute earlier.

Data set [3] in a line: Immunogenicity study in mice, serum antibody detection by ELISA. It counts as in vivo, Balc/C mice. The conditions noted are these: sc once a week, 2.5 nmol. The procedure: Balc/C mice (n=12) with a average weight of about 25 g were evenly divided into 4 groups. 2.5 nmol rGLK1164, 2.5 nmol rGLK1164/G-CSF, and the same volume of saline were administered to a corresponding group respectively by subcutaneous injection once a week. Serum samples were collected in week 4 and week 9(a week after the eighth immunization) and were saved separately at −70° C.
rGLK1164 or G-CSF was diluted with 0.2M carbonate buffer (pH9.6) to 1 μg/ml. Each well of the ELISA microplate was filled with 100 μl dilution and coated overnight at 4° C., and then the wells were washed with PBST for 3 times(5 minutes each time). The washed wells were sealed by 5% nonfat dry milk for 1 hour, and then washed three times with PBST (5 minutes each time). The preserved serum of each group was added to the well at a rate of 1:50,1:200,1:800, and then the microplate was incubated at 37° C. for 1 hour, and for one increased hour after the secondary antibody, HRP-conjugated goat anti-mouse antibody was added. After the microplate was shook to dry and washed by PBST, it was colored with TMB-HCL and detected under the illumination of 450 nm. Meanwhile, 200 ng/ml of rabbit anti-human G-CSF antibody was used as a positive control.

For the next data set, the system named is white blood cells. Description: Pharmacodynamic study, number of white blood cells in SD rats. It counts as in vivo. From the text:
(§1) The pharmacokinetic parameters and pharmacodynamic properties of rhG-CSF (Filgrastim, Amgen, USA), rHSA/G-CSF (prepared according to U.S. Pat. No. 5,876,969), rGLK1164/G-CSF and rGLK1164 in SD rats were compared.
(§2) Adult SPF SD rats (approximately 300-350 g) from the Center of Experimental Animals of Chinese Academy of Sciences in Shanghai were divided into 8 groups and administered according to Table 3. Blood samples were collected from the caudal veins of rats. The number of white blood cells were counted, and serum was saved at −20° C. after separated by centrifugation (3000rpm for 5 minutes).

The nature of data set [4]: Pharmacokinetics of G-CSF proteins in SD rats (ELISA). It counts as in vivo. The conditions noted are these: for Half-life: SD rats; for detectability in blood after subcutaneous injection: blood concentration-time curve.
From the text: as §1, §2
The plasma concentration detection of rhG-CSF, rGLK1164/G-CSF and rHSA/G-CSF was carried out using ELISA (for the specific operations, refer to the operating manual of Human G-CSF DuoSet kit Human G-CSF ELISA Construction Kit (ANTIGENIX)). The MicroCal Origin software was used to draw standard curve according to four-parameter logistic fitting method, and calculate related statistical parameters by regression analysis. The 3P87 software was used to calculate the PK parameters.
GLK/G-CSFs with different structures were prepared in a similar way, and their activity, half-life in SD rats and other relevant parameters were compared.

B1: rGLK1164/G-CSF: fusion protein of GLK1164 and hG-CSF (SEQ ID NO: 6) (protein)
chain: GPPGEQGKPGNQGEPGNPGSPGQPGNPGQPGSPGNPGQPGNEGPQGSQGNPGQPGEPGSNGQPGQPGQNGKNGQPGSPGSQGSPGNQGSPGNQGQPGNKGEQGKPGNQGPAGEQGKPGNQGEPGNPGSPGQPGNPGQPGSPGNPGQPGNEGPQGSQGNPGQPGEPGSNGQPGQPGQNGKNGQPGSPGSQGSPGNQGSPGNQGQPGNKGEQGKPGNQGPAGEQGKPGNQGEPGNPGSPGQPGNPGQPGSPGNPGQPGNEGPQGSQGNPGQPGEPGSNGQPGQPGQNGKNGQPGSPGSQGSPGNQGSPGNQGQPGNKGEQGKPGNQGPAGEQGKPGNQGEPGNPGSPGQPGNPGQPGSPGNPGQPGNEGPQGSQGNPGQPGEPGSNGQPGQPGQNGKNGQPGSPGSQGSPGNQGSPGNQGQPGNKGEQGKPGNQGPAGGSGGTPLGPASSLPQSFLLKCLEQVRKIQGDGAALQEKLCATYKLCHPEELVLLGHSLGIPWAPLSSCPSQALQLAGCLSQLHSGLFLYQGLLQALEGISPELGPTLDTLQLDVADFATTIWQQMEELGMAPALQPTQGAMPAFASAFQRRAGGVLVASHLQSFLEVSYRVLRHLAQP
modifications: rGLK116 tetramer/G-CSF
With B1, in data set [1], the in vitro activity result is “about 3.3×10^7 IU/mg”, the “Bioactivity (IU/mg)” value is given as 0.33 × 10^8 IU/mg and the “Relative activity (in molar basis)(%)” value is 146%. In data set [2] (0 h), the “Purity (%) (SEC-HPLC analysis)” value is 99.5% and the “protein content after incubation (%)” value is given as 100%. For the same molecule, in data set [2] (24 h), the “Purity (%) (SEC-HPLC analysis)” value stood at 98.7% and the “protein content after incubation (%)” value is given as 97.8%. Further, in data set [2] (48 h), the “Purity (%) (SEC-HPLC analysis)” value was 97.5% and the “protein content after incubation (%)” value came to 96.7%. For the same molecule, in data set [2], the “in vitro stability (aggregates, total protein content)” value was “changed little”. Also, the “serum anti-G-CSF antibody” value in data set [3] (plate coated by G-CSF) is reported as “anti-G-CSF antibody is produced”. Also, the “serum anti-rGLK1164 antibody” value in data set [3] (plate coated by rGLK1164) is on record as “no anti-rGLK1164 antibody produced”. Besides, the “number of white blood cells” value in the data set with white blood cells (48 hours after an injection) is recorded as “increased significantly”. Besides, the “extent and duration of white blood cell increase versus rHSA/G-CSF” value in the data set on white blood cells (same dosage) was “no significant difference”. Besides, in data set [4], the “Half-life” value was over 7 h and the “detectability in blood after subcutaneous injection” value is listed as “could still be detected at 72 hours”. In data set [4] (administered subcutaneously in rats), the terminal half-life stood at 10 h.

B2: rGLK420/G-CSF: fusion protein of GLK420 and G-CSF (SEQ ID NO: 10) (protein)
chain: GPPGEDGDKGEIGEPGQKGSKGDKGEQGPPGPTGPQGPIGQPGPSGADGEPGPRGQQGLFGQKGDEGPRGFPGPPGPVGLQGLPGPPGEKGETGDVGQMGPPGPPGPRGPSGAPGADGPQGPPGGIGNPGAVGEKGEPGEAGEPGLPGEGGPPGPKGERGEKGESGPSGAAGPPGPKGPPGDDGPKGSPGPVGFPGDPGPPGEPGPAGQDGPPGDKGDDGEPGQTGSPGPTGEPGPSGPPGKRGPPGPAGPEGRQGEKGAKGEAGLEGPPGKTGPIGPQGAPGKPGPDGLRGIPGPVGEQGLPGSPGPDGPPGPMGPPGLPGLKGDSGPKGEKGHPGLIGLIGPPGEQGEKGDRGLPGPQGSSGPKGEQGITGPSGPIGPPGPPGLPGPPGPKGAKGSSGPTGPKGEAGHPGPPGPPGPPTPLGPASSLPQSFLLKCLEQVRKIQGDGAALQEKLCATYKLCHPEELVLLGHSLGIPWAPLSSCPSQALQLAGCLSQLHSGLFLYQGLLQALEGISPELGPTLDTLQLDVADFATTIWQQMEELGMAPALQPTQGAMPAFASAFQRRAGGVLVASHLQSFLEVSYRVLRHLAQP
modifications: GLK420/G-CSF, fusion protein
As to B2, in data set [1], the “Bioactivity (IU/mg)” value was 0.28 × 10^8 IU/mg and the “Relative activity (in molar basis)(%)” value is listed as 129%. In addition, the “Half-life” value in data set [4] is over 7 h.

B3: rhG-CSF: rhG-CSF (Filgrastim, Amgen, USA) (protein, UniProt P09919 31-207, looked up)
Granulocyte …: TPLGPASSLPQSFLLKCLEQVRKIQGDGAALQEKLVSECATYKLCHPEELVLLGHSLGIPWAPLSSCPSQALQLAGCLSQLHSGLFLYQGLLQALEGISPELGPTLDTLQLDVADFATTIWQQMEELGMAPALQPTQGAMPAFASAFQRRAGGVLVASHLQSFLEVSYRVLRHLAQP
modifications: filgrastim, N-terminal Met
For B3, in data set [1], the “Bioactivity (IU/mg)” value is 0.7 × 10^8 IU/mg and the “Relative activity (in molar basis)(%)” value is given as 100%. For the same molecule, in data set [2] (0 h), the “Purity (%) (SEC-HPLC analysis)” value amounted to 99.8% and the “protein content after incubation (%)” value is 100%. Moreover, in data set [2] (24 h), the “Purity (%) (SEC-HPLC analysis)” value is 94.3% and the “protein content after incubation (%)” value was 91.2%. Also, in data set [2] (48 h), the “Purity (%) (SEC-HPLC analysis)” value is 85.2% and the “protein content after incubation (%)” value came to 68.9%. Further, the “in vitro stability (aggregates, total protein content)” value in data set [2] is “a large number of polymeric aggregates were formed and the total protein content was also decreased significantly”. In data set [4], the “Half-life” value was 1.7 h and the “detectability in blood after subcutaneous injection” value was “couldn't be detected 24 hours later”.
